Measurements reported in a protein production outcome set (Wang et al. 2014).

Experiment: label from the status in PepcDB records

Sequence | protein production
MLSALIWGPIFGAILIAIIPNPDHDCYSRKIALGIMVAMAGLSVLLAGQFNISDPQMQFVEYYPWLPSLGLNYHLGVDGLSLPLLLLNSALVVIAIFSTNTEIERPRFYYALLLLLSGGVAGAFLAQDLLLFFLFFELEIIPLYFLIAIWGGQRRGYAAMKFLLYTALSGFLVLVSFLGWFWLTKAPNFDYNPSLADALPVKTQMLLLLPLLLGLGIKIPIFPFHTWLPDAHVEASTPVSVLLAGVLLKLGTYGLLRFGLGLYLEAWVEFAPYLATLAAISALYGASCAIAQKDMKKVVAYSSIAHMGYILLAAAAATRLSVTAASAQMVSHGIISALLFLLVGVVYKKTGSRDVDKLQGLLTPERGLPITGSLMILGVMASAGIPGMVGFIAEFLVFRGSFPIFPTQTLLCLIGSGLTAVYFLLMINRVFFGRLTMELSHLPKVRWQEQIPAIALAVVIIALGIQPHWLTQWSEPQTAVLLTGHPDLVSVPAPPRIEIEVKELGEV | failed
MLSATSLKIIFAVSIFIVILIAGWYPFKKRLKDDKHIDFPIGETLATGVFLGAALLHMLPESNTLFKEMGYNYPFAFIITGVVFLIFLWFEHLGKELYHHHDAEHPAFAILAWAMLSVHSLMLGAALGFTQYNSMIIMLFLAIITHKWAESLAIAIQLNKSSMSTRKSMVFFFFFSLMTPLGIYFGWYFGHGVETNSLFDPILIAASAGTFLYLGTLHGLERCVMVERCCNLSDFSFVIIGFLLMASVAIYV | failed
MLSGKKTILVFSMLFATFSSHADNFPKLNQALPSGIDARAIAPVFDFDTDGCLPSAGVSRSGVQNGGLKPSGNITGGCRWSNFLDSSNTLHRYACVNSAGSRYCGSFYALYFLKDQILNGVNSGHRHDWEHVAIWTKNGVVTHGSYSAHGKLTTKEASSIDKQDGHLKFSYHKDGPLTHAFRFSKTNEQAENPYGKFVTPDLISWYLMFGDGINNQELRNLLNAFDYGSASIPLKDGNFLTNLNNGRPAGYPEFTDASITVSK | failed
MLSHMDGGTAGARVREVGWLAATLTALLLALLLEHYVIHEQMILPWIAVSPEVPPWMLGAQVVPEIIVCFLFGWRLRGLGWIVIYGAAAAALRQSFYALLTRIGASGHPETLFGPPSEFARTAPLVAVMYFMAFGLASMGAREPGPLPGARSRP | failed
MLSIIIPVYNEKGNILELTSRIKSALKNNEYEIVFVDDSTDETPKIIESLALKYNNIRLKHRKGKKGLSSAVIDGFKLARGDVLSVMDGDLQHPPEMLESMLFQMKKDTDIVICSRFVLGGKEEGLNIFRKFASFIARLIGKIFLKPLRKISDPTAGFFMLKRKVIKNRDLRAIGWKILIEILVMGDYKRVVELPYSFKRRKHEKSKFTISVQGQYLKQIVSLFIRSKKYNIKLEHHHHHH | not failed
MLSIIVPSYNRKAEVPALLESLTQQTSSNFEVIIVDDCSKERVVVEQSYSFPVTVIRNETNQGAAESRNVGARTSKGDWLLFLDDDDCFMPEKCEKVLQVIEQNPNINFIYHPAKCEMVNEGFTYVTQPIEPQEISTERILLANKIGGMPMIAIKKEMFLKIGGLSTALRSLEDYDFLLKLLQEPSFTPYKINEPLTYCTFHTKRSSVSTDTTNTQKAIDYIREHYVKTVEQARNFDINASYILAYPHIMNLSRKAAKYYFDIFKKTKSIKQFIITLVILISPKLAINLKRLGK | failed
MLSIMTFREFMKENGYEVKTKFWEDFSLAERFGLSAIQDTFNRAFKEWKEDYEFLTELVLVLNHKIWQYHEKRPEFAELYNTLEEQTDQYAMENLKDEELSYFFDVTDLEHHHHHH | not failed
MLSKIRPKVKQPLERIGKTLASLGITPNQLTIIGFLITLLASYEFYLQNQILAGIILAVGAFLDALDGALARATGKVSKFGGFLDSTIDRLSDASILFGIALGGLVRWDVTFLTLIGSYMVSYSRCRAELAGSGTLAIGIAERGERIIIIFIASLFNAVKIGVYLVAILSWITFIQRVYEAKKRLEMG | failed
MLSLAYGMVALIGYSVSFDKTTFRLLRGESNLFYTLAKWENNKLHVELPENIDKQSPTMTLIYDENGQLLWAQRDVPWLMKMIQPDWLKSNGFHEIEADVNDTSLLLSGDHSIQQQLQEVREDDDDAEMTHSVAVNVYPATSRMPKLTIVVVDTIPVELKSSYMVWSWFIYVLSANLLLVIPLLWVAAWWSLRPIEALAKEVRELEEHNRELLNPATTRELTSLVRNLNRLLKSERERYDKYRTTLTDLTHSLKTPLAVLQSTLRSLRSEKMSVSDAEPVMLEQISRISQQIGYYLHRASMHGGTLLSRELHPVAPLLDNLTSALNKVYQRKGVNISLDISPEISFVGEQNDFVEVMGNVLDNACKYCLEFVEISARQTDEHLYIVVEDDGPGIPLSKREVIFDRGQRVDTLRPGQGVGLAVAREITKQYEGKIVAGESMLGGARMEVIFGRQHSTPKDE | failed
MLSLKSEVLARHLPLFNGKSILLFGNVRDRFADQIRSISSHVAIFSHYFDYARHYNDVEFGLDCTTPANLGVFYWTKNKQECHYQLLQWLSQTAIGQQMLIIGENRAGVRSVEKLLSPFGQIAKIDSARRCGLYHFELQTIPQFDCQKFWKSYRLADLTVLSLPAAFSSTELDAGSQLLLSSFTNQDRLTGNVLDLGCGAGVIGAYLKQRFPAISLTMSDIHSMAIHSAQATLAKNKLTGTVIASDVFSHINDRFDLIVSNPPFHDDIDTAYHTVESLIMQAKNHLNYGGELRIVANAFLPYPDLLDKAFGSHQVVTKSNKFKVYSARV | failed
MLSLPPCRLAARRYRPLRQQNRGSSAVILYNAPSFFDCRFDCLANHRQRRWPRAGHPDRDDVMHTLEQLRAGKLCGARHLKLAENLTEFPPEIFSLKETLEVLDLTGNQLSRLPDGLAEFSKLRIIFCSENRFTELPEVLGRCPALTMVGFKANKIVTVPAASLPAGLRWLILTDNAVEQLPDELGQCGALQKLMLSGNRLRELPVTLANCQRLELVRIAANRLEALPHWLVRLPRLAWLAYAGNPFSDKQEQRLGQCASVADIPWDSLKVGELLGQGASGVIHRAELATPAGPRAVAVKCFKGAVTSDGLPRCELAVSLAAGRHPHLVGVEGRVGDHPSGIPALVMALIDPDFINLAGPPSLDSCTRDIYQADARFTPAALLAMVQGVASAALHLHGRGILHGDLYAHNMLHSLQEEGRLLLGDFGAASCYERTDGELAGLLERLEVRAFGCLLEELLARCAPCDDRLDALHALVDDCLAEVVAARPDFAEIAARLAAVAPVICAEPVLL | failed
MLSNGKCRNNKNQVNGSLSPKMFYMRINDQIVTKYHKILTKKIREVVGTLQQPWESRRIKQAPQQPQETTSATITCDRSHTNYDLCSINGSCNLDLKTGTLTLMDPTSAPLVEKIRPYPKKADNWIMPRIRELTLTSGPLGLPRSCDITHDLPAIVFSAGGYTGSIYHDLMDGFIPLFITANSVYPDRDFIPVVVNAKEWWMPKYIDILGTFSKHKPILLLDKESVATTHCFTSAIVGLITHWPMTIDPTQIPNSKSLVDFHNLLEKAFTTNISTPKTHKPRLMLVSRYGNIGRVILNEQEIKEMLEDVGFEVIIFRPSKTTNLKEAYKLIKSSHGMVGVHGAALTHLLFLRPGSIFVQVVPLGLGWASKPCYESPAKTMKLEYLEYKVNVEESSLIEKYNRDDLVLKDPIAYRGMDWNATKMKVYLKEQDVSLDVNRFRKHMNEAYKKAKIFMDING | failed
MLSNILPLSIGAIFGTTARWLLNLAVPASLSPATGNLFANWTGALLIGIFAETVSHPQWKLLLITGFFGSLTTLSGFSLETVTLLQSNRPASALANIFLHTAGSLLLTWLGLKIGTAVK | failed
MLSPCCHGQSMKTKITGKTISRIVPAEKVYRIHDTLQPGLSIRVLPSGHASYMVTWARNKAATLGRVGVITLEQARTDASRYLADAHAIGEPVAITEKRTGAAMPTLDHFLTHTFEPWAAEHHRDAKNGNRAIRHSFEALLSIPLSSIDTKRVEQIRTAWLRAGLAPSTANRNITRLRGVLSRALEWGVLQEHPLKVRKLKVDDRSRVRYLSIEEETALREALEARSNEMRDARDSANKWRLERHKEPLADLRAVRYADHLEPLVVLSINTGVRRGEAFNLTWADVDLKNKLITVEGDTSKSGQTRHVPLNREALDTLTKWKEQRGGNGFVFPGQHGKRLDNVKKSWSGLLKLAKVERFRWHDLRHTFASKLVMAGVPLNTVRELLGHTDIKMTLRYAHLAPGTKAAAVELI | failed
MLSVFVVNLRSNSAPFSFSRLLMHTTIVNERSLRTCNFPITLQDIRTLKELYRLKAETRDLRKPIVRNIMKQRVVGKGCLESLKNALYSLETIYIDDYTGQRLLRIDGMKQIEVDLTYEIRELQKDIYYLEYGEDRFIEYLAKFIPGFTDYVTEGVEMLRGKSFNAFITDRDGTTNNYCGRYRSSIQPIYNSVFLSRFAKNCCRYPMIVTSAPLKDFGILNVSINPEHIFVYAGSKGREFIDIDGQFHSFPIEPGKQELIRLLNERMQLLLLDPSFEKFNFIGSALQMKFGQTTIARQDITRSVNEAESAAFLEKIKGIVRDIDPEGKNFRIEDTGLDIEIILTIDVDPKTGMIRDFDKGDGLEFICRKMNIDHTGEPVLVCGDTSSDIPMLKKAMEMYDDVWAIFVTRDEKLMQRVREICPKSYMVPYPDILLTILGLLSL | failed
MLSYYGRLSSEVYDIDKPIDHSFRDVEFYIDRLNLCRGHILEPATGTGRVLVPLLEKGFKVDGFDSSKDMLNICRDNCRKKGLNPKLFEAKMESFIQDTRYDAIIVPAGTFLLLHQRADSIRALQNFHKHLCSGGRLIIDILMQTDFSTGTVSTRTWVCSNGDLITLESKVVEVDYINQYTVSHNRYEKWREGVLIQTELERFPLRWYGLEEFKLILESTGFKDIVISSDYKFGQYPSNVKDVITFEAVAIN | failed
MLTAPPKEAARPTLMPRAQSYKDLTHLPAPTGKIFVSVYNIQDETGQFKPYPASNFSTAVPQSATAMLVTALKDSRWFIPLERQGLQNLLNERKIIRAAQENGTVAINNRIPLQSLTAANIMVEGSIIGYESNVKSGGVGARYFGIGADTQYQLDQIAVNLRVVNVSTGEILSSVNTSKTILSYEVQAGVFRFIDYQRLLEGEVGYTSNEPVMLCLMSAIETGVIFLINDGIDRGLWDLQNKAERQNDILVKYRHMSVPPESLEHHHHHH | failed
MLTAQSEYVKKLRPLLPPEAFQADPKKLVILGLNLGIYVAGLTIARHLHQWPGQWLWLFLPMALLMGNSVTVFLFGSHDLMHGSVLKKRSKISYLISLLGLSLWWMPPSQWRSLHNQVHHNNTNSLRDPDRNYLHEQPKTWGKWIHHLFAPSGEVNTLWLIFGMGTAWGVHNFRNLISVLFFTGGNADFVPAAFTVKAQDRQRIWLELAAIGAVHLSILFYLQFQLIPIILGYFLPIFLGHAMGMFYIYTNHLACPMTDINDPLVNSVSLRMPKLFDCLHFNFSYHTEHHLFPDVNSDYYPLVQDLLQTHYPGQMNLLTAKEAWKMLLETPRHYQGETTLVGYNGGETIACPLPKNVPDLTETKVTASV | failed
MLTFEKVLEIFADYLAADKTIEVYISRHGCVRVEFDQDFHYCTGEVCHTPRKLFDLLSDDYQTYLEIELTKGRRELTEDDIKEADTLCKRYLDRWKEELGLEHHHHHH | not failed
MLTIDTASRTFHCKTWVTGQTQGKAVIARERISFWGGFDPQTGRIVDPYSSLRGRDISDCVLILLSSKGSSGTSGMLSLATRAGHAPAAMIQVEMDPVTVMGCLVNNIPLLQATGFDPFEQIQDGDLVRIDGENGTITLAPGQALEHHHHHH | not failed
